The series can be described thus: label from the status in PepcDB records.
Regarding “MLQLTRVSRLMNIHCGALMNLKQQYQTSLITDALLHSLQTHSVCTTPSETIDSALNSDGMDRQWMSFFYLPELNSTTVNKIKSILSSFTEVGYIEIDQQTHHLAIYHDGPITPIEKNLEKQGIDVVFQQTQANYIPEPIDWKQIKKRHQILSWLFSINLIMLMVTFFTGLIASSTALIALALIIMSDVMIYAMTLYGIHEKQIGLYKFTRVGLYLQISLSLLLILAVIFQSVLQHQPLAQLIILVAALAFFTMLINMYLLIQTQQERPDLLNFRQWFSFYDVMFSFAVIVAGICCLLFDSNWPDITITTLMVFFLLDRSRRVFKKKTSFVVQ”, the protein production entry is given as “failed”.
In the case of “MIRYLALLALLAAPWVQAADALHDDLPLKYLEQAPAEPRNQPLVIFLHGYGSNEADLFGLRQRLPASYTYVSVRAPQTLEEGSYQWFHRKGQGPYDGVTSELASGAELIGQFVRAALAKYQTQPDKVVLVGFSQGAVMAYEVGLRHPQSVRGIAALSGKILPVLAAQVKNNPSLQRLGIFIGHGTLDQRLPYSDAVDAQRLLQGLSLQPQFHAYPGLGHSISEAEIDDLKGWLQGLNP” it was “failed”; in that of “MEVAPSFSSVLKDCAVIEGQDFVLQCSVRGTPVPRITWLLNGQPIQYARSTCEAGVAELHIQDALPEDHGTYTCLAENALGQVSCSAWVTVH”, “not failed”; in that of “MGFPKLETERLQLRELTLLDAETMFHYFSKESVIRYFGMDSFENIEQAKTTIQTFKNRYEEGSVFRWGIEKKGTGQLIGTCGFHLINHHHKRAEIGYELDDTYWGQGYASEALQAILTYGFETLQLIRIAAVVYVENKASQKLLSKAGFQEEGLLRKHMIQNGVAHDTILYSLLKEEWKK”, “failed”.
In the case of “MNRRVVIVTAVHGPSAPFLPEAYASLCAQELPDGWEWRWVIQEDGRTQDVRPHVPDDPRVVFHQGRHGRQGGPGVARTMALAHADGAYVKVLDADDRLTPGALARDLAALEADPSIGWATSRVLDLLPDGSTAGFPGDPAHGPIERGEVLDFWRANGFRAQVHPATLLVRRDLLLAVGGWMALPASEDTGLLLALNCVSRGWFTEDVGLLYRKWEGQETGQASHVDPAERDARMTVVEARARALASFGWRLPEGTGDFDHLEHHHHHH” it was “failed”; in that of “MNPPDISVLIVSFNTRDLLRRCLASLRDQAGGTGIETIVVDNASRDGSADMVEAEFPDVRLIRSPVNLGFGNANNLAFTQSRGRYLVLLNSDACLAPGLLDAASKRMDACPDVGMAGGRLVGPEGGWQPSARMFPSLLNEFLVLSGLAHRYPKSRLFGRFDRTWADPSEEAGVDWVPGAFAILRRDLIDRIGFFDPRFFLYYEEVDLCRRIRAAGCKIMYWPELVITHLGGESAKTLSDMEFSSHASQLTLWRMRSQALYYRKWHGLALAWSAKTLEQLWHWLRALRHRRSAPAKAHDSEALIRLWNRAWKETEGGRVSPPQPWLEHHHHHH”, “failed”.
In the case of “MIIEGPVIKFGDKIDTDIIIPARYLKYTDPQYLAQHVMEPLDPEFYKKASKGVIIVAGKVFGMGSSREQAAIALKAAGVKAVVAESFARIFYRNAINNGLPVITLPNSTKEIDENSYVKIDVETGEILVGNKVLKGKGITGMALEILQAGGIMEYLKKMQTVNRN”, the protein production result is given as “failed”.
In the case of “MDYMERPKLGLIVREPYASLIVDGRKVWEIRRRKTRHRGPLGIVSGGRLIGQADLVGVEGPFSVEELLAHQEKHLAEEAFLRAYAKDEPLYAWVLENAFRYEKPLHVPRRPGRVMFVDLSEVRW” it was “not failed”.
In the case of “MNGARKWFFPDGYIPNGKRGYLVSHESLCIMNTGDETAKIRITFLFEDSKPVVHEVEISPMKSLHLRLDKLGIPKCKPYSIMAESNVPVVMQLSRLDVGKNHYTLMTTIGYWEE” it was “not failed”.
Regarding “MYVLVSSPFHYKQFTKFTIFSVFAGFSFIQNELTTYWFFILLFRQEITLFGLGVIARPLVRVFVSYLMGYISDKYDRAKLFYITRGISGILLFPLTFAFIYHSIPLIFGIYYIRTIIVELSNNVGYVAYYAVVPEQVRAKAIFYIRIISMASRVASGAVWYLIYQLISAYDLFLAGILGLIGLALLKGFNIGGGSKRVKLSTAIDFFRKDERIRGIILLYSVTDGLTYSINYLLPLLIIVYHGTEEIYSLSQTVLYGILVIASFVMTRIKDPIKIVSTYILSGFLFYLVLLYPSPYVLLISVLLYGFGSGIVENYVMATIKQSVGDEFLGSVLGLDVLVTSSVEIFLILLGQYLITINVVYYIIVGIVGMSLVLISWLLHPKLKDIKL”, the protein production result is on record as “failed”.
Under “MQQTVTYGAKWKQFLTIFTPIVITQLTLFSMTFFDTTMSGNYSNQALAGVAIGSSFWAPVNAAFSGLLMAITPIIAQLIGAKKEKQVKNTVHNGLYIALFLAFILILINFLVVPTILTHMPVTAEVAHIARHFLNGICIGIPAFFISAILRSFIDSLGLTRVTMLITLCTVPFNIFLNYCFIFGNFGFPEMGGAGSGYATGITYWLVVLVSVILIQTQTRLRKFGIFKGLTALRFSKVKEIIGIGVPNGLTILFETSIFSAVTILMGAFGTETIAAHQSANSVCTLLYAFPLSVASTLTILGGYETGAKRLKDAKQYRHIGMTAAILIGCINGAILFFFRDIIAGFYTNDAELSDLIMHFLVYAILFQFADAVLSPVLGALRGYKDVAITSIIAFISYWLIGLPVGYGLSFTNLGPFGYWIGLSTGLFVAAFILSIRVRKTERKLSLNAKNAEISS” stands “not failed”; under “MNTLYTLFATCPRGLETVLSQELGSLGCTDVQAFDGGVSCRGGLEQAYAANLHSRTAGRILLRLTKGTYRTERDIYKLAKNINWFNWFTLQQTFKVKIEAKRANVKSLQFAGLTVKDAVCDAFRDIYDARPSVDKAAPDVRIHAFLDERNVEIFIDTSGEALFKRGYRLDTGEAPLRENLAAGLLLSAGYDGTQPFQDPFCGSGTIAIEAAWIAAGRAPGMMRRFGFEKLQNFDKTLWADLRRRAEAQTRPVRAPIAGSDNGRRIVQTALDNAHNAGADDIVSFSVAGAQSVRPNGENGIMVSNPPYGVRLEEVRALQALYPQLGTWLKKHYAGWRVGMFTGDREMPKFMRLLPKRKIPLYNGNIDCRLFLIDMVQGSNR”, “not failed”; under “MSVYKLTDLRDNSTNWKINVKILSIWNHPPNSHGEIMTMILHDDKNNRVDATIPQGNYHNPFRPFLKPGTWIHISDFRVIVPQSRVRYSSFCFHIKFIWETSVYPLPELVKRDFFDFIFPIDLKYPCLEDWDYVTDAMSEVTNISAIKKFPFVCRQGETDYESRYVSFELLDNMGEKMKCYAVGRCCELFVINFSKCISSASYNYQPIVAIVRFWRIAEIEGENVLKSEFGCSRIYLNPTNFPEIDIQSYIRGFEDYDELPENPRMEVIEEN”, “failed”.
Consider “MMYSKFISFLKQIPLPICGLILGLISLGNLLYSKGYPILGNSYDMLGLFLMFLILLKIVLAMKHTISTLNDPIVASVSPTFTMSLMVLSVFLKRLSGFSLLANVTWWTALILHLILMMYFIYLHVLPKELKIHDVYPSWFITFVGIGVISATSPDFGLEVGKVVVWITLLFYFILLPIVMHRVFILRKMHKSLLPLITIITAPGSLGLVGYLTVVEAKSKIFVIFLFILSQAIYFITLGLLTKLLRSAFYPSYAAFTFPLVISATAVNLTSKLSVFQFLNLELLANMEILIAIAIVTYVLIRYCIFLGSKLVQIMSEKYSPESI”, for which the protein production entry was “failed”.
“MLKKLLLVSTVLLLSACSSRQYSESSLTQSKIDIYEQTQNYVALSDLYKAELKKEDSEEIREALAAALLHLEDPESALFYLKPNIENGASFQSYYLQASALGDLGKYPQAIKAALLSLEENPDNPETENLLGILYGHEYQYEKSRRYFQKAQLHFYDSNTIANNLAVLDIAEGNYKRAAQRLLPVYRSGQANEQVMANLILSMAKEQNLEFIQAVLGDKHTKKEIERIYQSLQRFNSLDIDTKKSV”: the protein production entry is “failed”.
As for “MSKVFVNISLSLDGFMAPEGMDMAHFSDPTYKNWGAKWGALMAWALSQQYLREKLKLGTGGETGPVNDMVRHTFERTGAHIMGKRMFEGGERGWPEEAPFHTPVYVLTHERRNPWVRPGGTTFYFVNDGPEQALALAREAAGERDIRISGGANVIQQYLNLGLVDELEIALIPVIFGGGRRLFENLHEPLPQFRIDRVLASPTATHLRYVRL”, the protein production entry is recorded as “not failed”.
As to “MVFIMENTNKIASLELGRLLAMFAIIALHSQVFMTYLLMDDFPVFGNIFNQLTRFAVPFFFILSGYFIQPKLTHTPLKTIQSYCAPLFKIWIVWSVLSLALPFHWRKVAENGYLAERTGYWNWLTQNPLNALFEGGMVHLWFIPALIIAVSIIGLLIHFKKTTWLIPIAVILYVYGLAGGSYQTLTEVWTPFFTRNGPFFSTLMVVIGFELRRREITLSSTNALILLLVGFAIHFSEAYWLTQFDVPFNLHDFLIGTPLMGIGVFFLLLSKPQLGHHPITFTLSKHVLGIYVCHLLFVVVFLNITGMMGITLAMRDFVIVFGTATASTLFVLIMDKTPFRQMLFR”, the protein production result is listed as “failed”.
On to “MEELLREYLPILVFLAVAAGLGLVLILAAVVLAVRNPDPEKVSAYECGFNAFDDARMKFDVRFYLVSILFIIFDLEIAFLFPWAVGFKDMSDVGFWSMMVFLGVLTIGFAYEWKKGALEWQ”, for which the protein production result is “failed”.
Under “MAICKVFRNYCKENDIQLHQANFSLSYDTNIPRQTGLSGSSAIVSAALNCLLDFYNVRHLIKVQVRPNIVLSAEKELGIVAGLQDRVAQVYGGLVHMDFSKEHMDKLGHGIYTPMDISLLPPLHLIYAENPSDSGKVHSMVRQRWLDGDEFIISSMKEVGSLAEEGRTALLNKDHSKLVELMNLNFDIRRRMFGDECLGAMNIEMVEVARRVGAASKFTGSGGAVVVFCPEGPSQVKLLEEECRKAGFTLQPVKIAPSCLNDSDIQTL” stands “failed”; under “MNTVPLKPQRLLSLDVFRGMTIVLMIFVNGQAAIDPYPIFEHVDWNGCTLADLVFPFFLFIVGLTSVISLKNQMERKAKTSLYSAIIERSVVLFLLGLFLNVFPHPIEFDSIRIYGILQRIAVCYLISAFIYLNTSIKTQFFIFLVLLLGYWIIMTQVPVPGYGANQLTKDGSWVSYFDQLFFSASHLYEKTYDPEGFLSTFTSIATTLSGVLAGSLLISPCNQFKKFYLLAGIGLLFLLLGWLWNMSFPINKNLWTSSYVLWTSGLALLAFAFCYLLIDRFGVKKWSVFFKVFGMNALFAFVFHVLLLKLQYAFKITTPDGSKMVLISYLKDYFFGGFSNHNAALLYSICFLFLNFLVVLILYKRNVFIRI”, “failed”; under “MEIVYVYVKKRSEFGKQCNFSDRQAELNIDISPNPELAALYVERNPVDTGIQCSASMSEHEANTERFEMENCGVNHVEGGWPKDVNPQELEQTIRFRKKVEKDENYINAVMQLGSIMEHCIKQNNAIDIYEEYFDDEEAVEVTEEAPSAKTINVFRDPQEIKRTATHLSWHPDGNKKLAVAYSCLQFQRSPMGMSHDSYIWDLENPNRPEIALKPSSPLITLEYNPKDSHVLLGGCYNGQIACWDTRKGSLVAELSTIEFSHRDPVYGTIWLQSKTGTECFSASTDGQVMWWDIRKISEPTEVVIMDITRKEQLENALGAISLEFESTLETPFQMGRGLGCILSRRPELKQQNEKLEGKPLTLPSHHRVPVRLGFYPCFPTNKRGLGDTCRSWLSPSSWAQGTKLRLSVLVANAVEPVTAWAAFTHMQSLHTQEHTVSTLGRFYFMYKQISKILTRTLTGASSVLKVCDDPLFCLRVQDTGCLIACGSELGTTTLLEVSSSLSTLQRNERNIASSIFERETRREKILEARHREMRLKEKGKAEGRDDDQKEEETALDLDELVNKAEEEFFEVIFAELKRKEAEALKKKPKPKKASIEVEGEDELEDIAGEEEESGIIMGEDTGEDDMDEKNEGGAP”, “failed”.
In the case of “MGAVSAFSWASSGRLHALEVFVMKIPKTYDEIMEHFGGLIDEVTAELLESYAKGETVRVSEALAKSGRVAVEGVVLRVFPVRHFSKNGRSGKVGSVVIQDDCTVRVNFWNEAAEIIEAGDIVEGARIKVRGYARGEEIHVNSLSEVEVFVDFVNISELDEKVGERVNVKGFVSGLGEPEKANEIYISDETGRVKVLLENESLYYAVDIGSYVEIYNALAGEDGIYVDRNSRFSVGELEHHHHHH”, the protein production result is listed as “failed”.

The values are drawn from a protein production outcome set (Wang et al. 2014).
